± gives the standard deviation of the averaged measurements.
Tested on: Saccharomyces cerevisiae
Assay: protein stability index of tFT-peptide fusion (C-terminal peptide) (PSI (0-1 scale)); higher = more stable (slower turnover)
Settings: genetic background: wild type; temperature: 30 C
Method: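 Multiplexed protein stability (MPS) profiling in S. cerevisiae. Random 12-aa peptides (tFT-X12 library) are fused to the C-terminus of a sfGFP-mCherry tandem fluorescent timer, after mCherry and a GGGS linker. Cells are FACS-sorted into 8 mCherry/sfGFP bins and deep-sequenced. The protein stability index (PSI) is the read-weighted bin average, scaled from 0 (unstable) to 1 (stable). Only peptides with >10 reads are reported; cells were grown at 30 °C in SC-His with glucose.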
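Further: PSI is a weighted mean of sequencing reads over stability bins, variants kept only with over 10 reads, mCherry proximal and sfGFP distal, peptide attached via GGGS linker.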

Sequence	protein stability index
GVGCVGGGSSCA	0.67 ± 0.1
GVGFRVVRTSGR	0.6859 ± 0.0018
GVGRGGAVENKV	0.742 ± 0.054
GVGVGDCVRCMV	0.619 ± 0.008
GVGWPGVGAGGG	0.635 ± 0.05
GVGWQSPGVLVL	0.605 ± 0.017
GVIGGLRAGVGG	0.719 ± 0.079
GVLGWTRFRSCS	0.715 ± 0.077
GVLLWWGRRRGE	0.7224 ± 0.0048
GVLWCGYGVGGG	0.762 ± 0.11
GVNGSGFLSEVI	0.6795 ± 0.0012
GVPGQFVSENII	0.679 ± 0.027
GVQDVRAGLLEY	0.676 ± 0.037
GVQFSVWCGSVG	0.7 ± 0.04
GVRCVQGTVTGR	0.7 ± 0.099
GVREGCRGGVGA	0.625 ± 0.052
GVRGCGMTADVF	0.668 ± 0.008
GVRGGCDRGEVG	0.604 ± 0.046
GVRPWGGMCSCL	0.7046 ± 0.0024
GVRSGAGGQGVG	0.708 ± 0.069
GVSGQGLVAVEV	0.59 ± 0.035
GVVALFLYLLVL	0.494 ± 0.02
GVVERGRRAGEG	0.659 ± 0.028
GVVGKDEGRSRA	0.797 ± 0.038
GVVMLSDDGSAW	0.718 ± 0.026

Sequence	protein stability index
GVVSVFVGSLGG	0.699 ± 0.067
GVVVVVVGRGLG	0.574 ± 0.018
GVVWMSCGGGWG	0.7543 ± 0.0068
GVVWMSCGGWWG	0.7545 ± 0.0042
GVVWMSGGGWWG	0.761 ± 0.03
GVWCFPVGVFRA	0.529 ± 0.011
GVWGVGGGGGGR	0.634 ± 0.088
GVWRCGVVGLSL	0.665 ± 0.038
GVWSLVGRGGEG	0.621 ± 0.017
GVWVASCSGAGI	0.632 ± 0.033
GWALGRAGASGA	0.701 ± 0.067
GWGGAGGGGGRV	0.652 ± 0.1
GWGGCGGWGFVG	0.605 ± 0.011
GWGGIGDGGPVW	0.679 ± 0.019
GWGVPGPEPREP	0.658 ± 0.064
GWHVGCGCTVFR	0.671 ± 0.061
GWKLGAGRRGVI	0.704 ± 0.029
GWLGFVGGVRVQ	0.685 ± 0.0063
GWRGAAGVPTVD	0.73 ± 0.031
GWSFDLVSAQWG	0.817 ± 0.02
GWSGCNWCIGVG	0.584 ± 0.018
GWTGEVGVAAGA	0.65 ± 0.064
GWVLRERGRGVG	0.572 ± 0.07
GWWAVSRSGCCC	0.693 ± 0.015
GYAGSRRLGLQE	0.641 ± 0.015

Sequence	protein stability index
GYHRGLSHVLED	0.694 ± 0.018
GYLGEIHLHYVQ	0.708 ± 0.048
GYWGRGGGLGGV	0.7438 ± 0.001
GYYVLSIGGVIV	0.574 ± 0.0065
HAARFRLPASPC	0.672 ± 0.051
HAAWQHPNTTQV	0.714 ± 0.013
HADFRTLLASRS	0.67 ± 0.018
HAHPDQTKLDTA	0.7 ± 0.063
HARAGTKPLTGY	0.678 ± 0.0092
HCSWRSLMTLAG	0.642 ± 0.031
HCVRVEWVEGRR	0.668 ± 0.023
HDGIQVSVRRRT	0.67 ± 0.011
HFSSLDPFLPSL	0.712 ± 0.016
HGFHSPPSDLPT	0.724 ± 0.15
HGLPPPLPPLRS	0.689 ± 0.019
HGSRGGIINEEG	0.642 ± 0.082
HGYRWCLHARFG	0.556 ± 0.058
HHPSPPSPSPAC	0.698 ± 0.018
HIGDLRDSCFIS	0.693 ± 0.031
HIIRGDCVGVLG	0.618 ± 0.017
HILDHVTSSLSF	0.66 ± 0.011
HILINTCSCASL	0.546 ± 0.044
HISSFPSPPPPV	0.711 ± 0.054
HIVSRKYNYPCT	0.739 ± 0.088
HKEYGTTCYGYR	0.691 ± 0.049

Sequence	protein stability index
HLCVDHLGCHSF	0.703 ± 0.048
HLFWSRGICFFR	0.631 ± 0.062
HLHGKTERPSHL	0.811 ± 0.058
HLIRRGGSQTWT	0.713 ± 0.049
HLLLLSLVFFFW	0.744 ± 0.017
HLSLPTRAPIRH	0.696 ± 0.019
HMCSTYGKLRLD	0.622 ± 0.052
HMLVCPLAALGI	0.6884 ± 0.0031
HPAGPSGRLLPT	0.685 ± 0.0095
HPETIGHNVRPR	0.708 ± 0.048
HPFARGPLSRHP	0.7 ± 0.081
HPIPHDVSGRRN	0.784 ± 0.1
HPPITPYLHRRT	0.724 ± 0.17
HPPPCLSLPSSP	0.731 ± 0.095
HPPPETEPIPVA	0.574 ± 0.066
HPPPSPRPPPPP	0.691 ± 0.039
HPSNMYSGDEAP	0.68 ± 0.01
HPSPPPPPPFPT	0.748 ± 0.038
HQYLGMCLDRPV	0.6455 ± 0.0054
HRASFRIGFRTF	0.758 ± 0.033
HRCLCGCLDSVV	0.726 ± 0.028
HRDPRFSRCSTC	0.69 ± 0.034
HREGTTAFFKTH	0.536 ± 0.013

Reference: the supplement of paper PMC10724198
